Measured values as given in paper PMC4423232.

What was measured:
[1] = molecular target: optimized version of the ectodomain of human Fcγ receptor I (hFcγRI, CD64), residues Gln16 to Val289, hexa-histidine tag at the C-terminus (human) (UniProt P12314); experiment: SPR; method #1: Biacore T200, hFcγRI captured by its C-terminal hexa-histidine on a Ni-NTA chip (~550 RU for Fc, ~220 RU for IgG), Fc or IgG1 as analyte, PBS with 0.005% Tween-20, 25 °C, 1:1 Langmuir global fit, KD from the rate constants
[2] = molecular target: optimized version of the ectodomain of human Fcγ receptor I (hFcγRI, CD64), residues Gln16 to Val289, hexa-histidine tag at the C-terminus (human) (UniProt P12314); experiment: SPR; temperature dependence of KD, van't Hoff approximation; hFcγRI on the surface, Fc or IgG1 as analyte

Kd [1]: 4.2 nM | koff [1]: 0.00011 s⁻¹ | kon [1]: 27000 M⁻¹ s⁻¹ | dH (van't Hoff) [2]: -26.8 kcal/mol
Substance: Fc fragment of the humanized IgG1 monoclonal antibody rituximab (from UniProt P01857 107-328) (domain or fragment)
